Patent US12404346B2, “Anti-naloxone and anti-naltrexone monoclonal antibodies and methods of production and use thereof” (Siemens Healthcare Diagnostics Inc., priority 2019, dated 2025)

Columns and labels:
[1] = inhibition ELISA, anti-naloxone monoclonal antibodies against key opioids (FIG. 7); type: binding; details: free drug 20 μg/mL, plates coated with ovalbumin conjugate
Description: (§1) Mice with good anti-drug antibody titers and binding to free drug in the ELISA inhibition assays were selected to proceed with generation of monoclonal antibodies, in a similar manner to that described in U.S. Pat. No. 9,815,907 (issued to Sharma et al. on Nov. 14, 2017). In particular, mice with highest titers and best specificity were boosted three days prior to fusion. On the day of fusion, spleen cells were harvested from these mice and were fused with myeloma cell line P3X63Ag8.653 using PEG-assisted fusion protocols. After about ten days, hybridoma supernatants were screened for anti-naloxone and anti-naltrexone antibodies using a plate ELISA (direct binding and inhibition ELISA for specificity). Positive clones were further expanded and sub-cloned, and supernatants were purified using a Protein A SEPHAROSE® (GE Healthcare, Chicago, IL) column. Purified antibody samples were tested using ELISA for binding to the immunogen (i.e., a conjugate of drug-carrier protein) and to free opioids.
(§2) Antibody solution (Immune mouse bleeds or hybridoma clones supernatant or purified antibody) was screened using an inhibition ELISA procedure according to the following protocol. […] Plate coating was performed for 1 hour or more at room temperature or overnight at about 2° C. to 8° C. The plates were then flicked dry and blocked with 200 μL per well of blocking buffer solution (0.5% Casein solution in PBS containing 0.05% TWEEN® 20 surfactant (Croda International PLC, Snaith, United Kingdom). Plate blocking was performed by incubation for 30 minutes or more at room temperature with plate shaking. The plates were washed using a plate washer (BioTek®, Winooski, VT) with plate stacker with the washing buffer being MILLIQ® water (Millipore Corporation, Billerica, MA) containing 0.05% TWEEN® 20. The monoclonal antibody to be screened was then added to each well along with free drug as follows: 25 μL per well of appropriately diluted culture supernatant (or antibody solution) and added 25 μL of 20 μg/mL of free drug. Incubation was performed for about 1 hour at room temperature with plate shaking. The plate was washed. An enzyme conjugate (goat anti-mouse IgG coupled to HRP diluted in blocking buffer diluted to 1:3000) was added at 50 μL per well. Incubation was performed for about 1 hour at room temperature with shaking. The plate was then washed, and a chromogenic solution (TMB from Moss Substrates, Pasadena MD) was added at a volume of 100 μL per well. If a desired antibody was present in the hybridoma supernatant, then a decrease in optical density was observed compared to the well containing no free drug. The plates were read at 650 nm wavelength using an ELISA plate reader (Molecular Devices, San Jose, CA). Note: appropriate dilution of antibody solution was determined by performing a titration ELISA. The antibody dilution was chosen where around 1.0 optical density was observed.

[2] = inhibition ELISA, anti-naltrexone monoclonal antibodies against key opioids (FIG. 8); type: binding; details: free drug 20 μg/mL, plates coated with ovalbumin conjugate
Description: as §1, §2

B1: 179B 9G1.1: anti-naloxone monoclonal antibody generated using naloxone-3-Val-mcKLH; heavy chain SEQ ID NO:161, light chain SEQ ID NO:165 (antibody)
heavy: MEWPCIFLFLLSVTEGVHSQVQLQQSGPELVKPGASVMISCKVFGDIFSSSWMNWVKQRPGKGLEWIGWICPGNGATKYNGKFKGKATLTADKSSGTGYMQLSSLTSEDSAVYFCELGRRDGYLDVWAGTTVTVSS
light: MESQTQVFVYMLLWLSGVDGDIVMTQSQKFIFTSEGDRVSVTCKASQNVGTNIAWYQQKPGQSPKALIYSASNRYSGVPDRFTGSGSGTDFTLTFSNVQSEDLAEYFCLQYNNYPWTFGGGTKLEIK
modifications: Amino acid sequence of heavy chain of monoclonal antibody 179B 9G1.1; Amino acid sequence of light chain of monoclonal antibody 179B 9G1.1
specificity for naloxone over the other key opioids tested in the inhibition ELISA assay [1]: good specificity for naloxone

B2: 180C 1F8: anti-naltrexone monoclonal antibody generated using naltrexone-3-Val-mcKLH; heavy chain SEQ ID NO:61, light chain SEQ ID NO:65 (antibody)
heavy: MEWSWIFLFFLSVTTGVHSQVQLQQSDAELVKPGTSVKISCKASGFTFTDHAIHWVKQRPEQGLEWIGYISPGNGDIKYNEKFKGKATLTADKSSSTAYMQLNSLTSEDSAVYFCDYYNGRVDYWGQTTLTVSS
light: MEFHTQVFVFVFLWLSGVDGDIVMTQSQKFMTTSVGDRVSITCKASQNVGSAVAWYQQKPGQSPKLLIYSASNRFTGVPDRFTGSGSRTDFTLTISNMQSDDLADYFCHQYRSYPYTFGGGTKLEIK
modifications: Amino Acid sequence of heavy chain of monoclonal antibody 180C 1F8; Amino Acid sequence of light chain of monoclonal antibody 180C 1F8
specificity for naltrexone over the other key opioids tested in the inhibition ELISA assay [2]: good specificity for naltrexone

B3: 180C 7G8: anti-naltrexone monoclonal antibody generated using naltrexone-3-Val-mcKLH; heavy chain SEQ ID NO:81, light chain SEQ ID NO:85 (antibody, V domains shown)
VH: MYLGLNCVIIVFLLKGVQSEVKLEESGGGLVQPGGSVKLSCAVFGFTFSDPWMDWVRQSPEKGLEWVAEIRNKAYNHATYYAESVKGRFTISRDDSNSRVSLQMNNLRAEDTGVYYCTAGDSSHSYWQGTLVTVSA
VL: MEFQTQVFVFVLLWLSGVDGDIVMTQSQKFMSTSVGDRVSIICKASQNVRTAVAWYQQKPGQSPKTLIYLASNRHTGVPDRFTGSGSGTDFTLTISNVQAEDLADYFCLQHWNYPLTFGGGTKLEIK
modifications: Amino acid sequence of heavy chain of monoclonal antibody 180C 7G8; Amino acid sequence of light chain of monoclonal antibody 180C 7G8
specificity for naltrexone over the other key opioids tested in the inhibition ELISA assay [2]: good specificity for naltrexone

B4: 180C 8A10: anti-naltrexone monoclonal antibody generated using naltrexone-3-Val-mcKLH; heavy chain SEQ ID NO:101, light chain SEQ ID NO:105 (antibody)
heavy: MGWSYIFLFLVATVTDVHSQVQLQQPGAELVKPGASVKLSCKASGYTFTNYWINWVKQRPGQGLEWLGEINPSNSNTKYNEKFKSRATLTADKSSSTAYMQLHSLTSEDSAVYYCNYYDGGHDSWGQTTLTVSS
light: MEFHTQVFVFVFLWLSGVDGDIVMTQSQKFMSTTLGDRVSIICKASQNVGTAVAWYQQKPGQSPKLLIYSTSNRYTGVPDRFTGSGSGTDFSLTISSVQSEDLADYFCHQYSSYLYTFGGGTRLEIK
modifications: Amino acid sequence of heavy chain of monoclonal antibody 180C 8A10; Amino acid sequence of light chain of monoclonal antibody 180C 8A10
specificity for naltrexone over the other key opioids tested in the inhibition ELISA assay [2]: good specificity for naltrexone

B5: 180B 13F7: anti-naltrexone monoclonal antibody generated using naltrexone-3-Val-mcKLH; heavy chain SEQ ID NO:41, light chain SEQ ID NO:45 (antibody)
heavy: MRVLILVYLLTALPGILSDIQLQESGPGLVKPSQTVSLTCTVTGYSITYVNHWWNWIRQVSGNKLEWIGYISSSGSIDSNPSLKSRIAITRDTSKNQLFLQLKSVTTEDVGTYYCVSEDSSGYHYWGGTTLTVSS
light: MKLPVRLLVLMFWIPASSSDVVMTQTPLSLPVSLGDQASISCRSSQSLVFSNGKTYFHWYLQKPGQSPKLLIYRVSNRFSGVPDRFSGSGSGTDFTLKISRVEAEDLGVYFCSQSTHVPWTFGGGTKLEIK
modifications: Amino Acid sequence of heavy chain of monoclonal antibody 180B 13F7; Amino Acid sequence of light chain of monoclonal antibody 180B 13F7
specificity for naltrexone over the other key opioids tested in the inhibition ELISA assay [2]: good specificity for naltrexone

B6: 179B 9E12: anti-naloxone monoclonal antibody generated using naloxone-3-Val-mcKLH; heavy chain SEQ ID NO:181, light chain SEQ ID NO:185 (antibody, V domains shown)
VH: MGWSWIFLFLLSGTAGVHCQIQLQQSGPELVKPGASVKISCKASDYSFTNSYINWVKQRPGQGLEWIGWIYPGSTNTKYNEKFWDKATLTVDTSSNTAYMELRGLTSEDSAVYFCEMGTHYSYDVMDWGQGTSVTVSS
VL: MEFQTQVFVFVLLWLSGVDGDIVMTPSQKFMSTSVGDRVSITCKASQNVRTSVGWYQQKPGQSPKPLIYATSNRHTGVPDRFTGSGSGTDFSLTITNVQSEDQADYFCLQHWNYPWTFGGGTKLEIK
modifications: Amino acid sequence of heavy chain of monoclonal antibody 179B 9E12; Amino acid sequence of light chain of monoclonal antibody 179B 9E12
specificity for naloxone over the other key opioids tested in the inhibition ELISA assay [1]: good specificity for naloxone

B7: 180C 9G8: anti-naltrexone monoclonal antibody generated using naltrexone-3-Val-mcKLH; heavy chain SEQ ID NO:141, light chain SEQ ID NO:145 (antibody, V domains shown)
VH: MYLGLNCVIIVFLLKGVQSEVKLEESGGGLVQPGGSMKLSCAASGFTFSDAWMDWVRQSPEKGLEWVAEIRNKANNHATYYAESVKGRFTISRDDSNSRMFLQMDSLRAEDTGIYYCIGGIPRYFDVGAGTTVTVSS
VL: MESQTQVFVYMLLWLSGVDGDIVMTQSQKFMSTSVGDRVSITCKASQNVRTYVAWYQQKPGQSPKALLYSASYRYSGVPDRFIGSGSGTQFTLTISDVQSEDLAEYFCHQYNSYPLTFGGGTKLEIQ
modifications: Amino acid sequence of heavy chain of monoclonal antibody 180C 9G8; Amino acid sequence of light chain of monoclonal antibody 180C 9G8
specificity for naltrexone over the other key opioids tested in the inhibition ELISA assay [2]: good specificity for naltrexone

B8: 180C 9D5: anti-naltrexone monoclonal antibody generated using naltrexone-3-Val-mcKLH; heavy chain SEQ ID NO:121, light chain SEQ ID NO:125 (antibody)
heavy: MGWNYIFLFLIATVTDVHSQVRLQQPGTDLVKPGASVKLSCRASGFTFTNYWMNWVKQRPGQGLEWIGEINTNGGTKYNENFKNKATLTVDQSSSTAYIQLSGLTSEDSAVYFCNYFDGNYDYWGQGTLTVSS
light: MEFHTQVFVFVFLWLSGVDGDIVMTQSQKFMSTPVGDRVSLTCRASQNVGTAVAWYQQKPGQPPKLLIYSTSNRFTGVPSRFTGSGSGTDFTLTITNMQSEDLADYFCHQYSSYPYTFGGGTKLEIK
modifications: Amino acid sequence for heavy chain of monoclonal antibody 180C 9D5; Amino acid sequence for light chain of monoclonal antibody 180C 9D5
specificity for naltrexone over the other key opioids tested in the inhibition ELISA assay [2]: good specificity for naltrexone
